Laboratory results: paper PMC11322666, “UPF3B modulates endoplasmic reticulum stress through interaction with inositol-requiring enzyme-1α” (Cell Death & Disease, 2024)

Legend:
[1] = molecular target: T1, IRE1α^S724A (human, UniProt O75460 19-977, S724A); assay: co-IP; lysates of transfected HEK293T or U2OS cells (24 h) in NETN buffer (20 mM Tris-HCl pH 8.0, 100 mM NaCl, 1 mM EDTA, 0.5% NP-40), IP with anti-Flag (M2) magnetic beads or the indicated antibodies, western blot; Fig. 3G two-way; details: partners not purified
T1 construct: IRE1α, human, point mutant; source: HEK293T and U2OS, transfected, in lysate
T1 sequence (O75460 19-977 S724A): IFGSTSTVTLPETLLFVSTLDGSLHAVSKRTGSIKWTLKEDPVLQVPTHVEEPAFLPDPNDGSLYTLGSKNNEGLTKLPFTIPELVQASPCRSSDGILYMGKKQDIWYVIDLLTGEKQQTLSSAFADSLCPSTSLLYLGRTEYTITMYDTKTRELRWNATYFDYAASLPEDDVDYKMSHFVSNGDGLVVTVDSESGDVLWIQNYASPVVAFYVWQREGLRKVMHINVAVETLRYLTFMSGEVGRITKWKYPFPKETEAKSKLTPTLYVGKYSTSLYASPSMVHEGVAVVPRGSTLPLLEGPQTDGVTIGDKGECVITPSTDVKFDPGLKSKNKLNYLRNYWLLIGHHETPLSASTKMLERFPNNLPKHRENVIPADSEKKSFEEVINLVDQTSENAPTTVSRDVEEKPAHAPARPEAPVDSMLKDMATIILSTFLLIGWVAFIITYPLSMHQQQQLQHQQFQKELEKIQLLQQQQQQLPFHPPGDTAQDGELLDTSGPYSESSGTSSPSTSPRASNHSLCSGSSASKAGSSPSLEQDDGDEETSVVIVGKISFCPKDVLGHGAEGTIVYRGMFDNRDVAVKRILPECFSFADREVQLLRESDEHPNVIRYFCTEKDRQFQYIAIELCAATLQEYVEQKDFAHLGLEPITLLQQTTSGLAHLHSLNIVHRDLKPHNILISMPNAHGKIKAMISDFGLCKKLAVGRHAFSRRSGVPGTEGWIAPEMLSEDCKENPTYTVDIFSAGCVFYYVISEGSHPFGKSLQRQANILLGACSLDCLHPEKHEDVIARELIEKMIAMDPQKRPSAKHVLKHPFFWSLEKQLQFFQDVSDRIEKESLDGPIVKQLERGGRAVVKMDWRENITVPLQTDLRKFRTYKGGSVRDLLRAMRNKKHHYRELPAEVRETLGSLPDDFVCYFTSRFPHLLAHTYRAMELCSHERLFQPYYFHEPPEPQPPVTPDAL

[2] = molecular target: T2, inositol-requiring enzyme-1α (IRE1α), endogenous (human (endogenous in HEK293T and U2OS), UniProt O75460 19-977); assay: co-IP; endogenous proteins, lysates of HEK293T and U2OS cells, IP with the indicated antibodies (anti-IRE1α), IgG as negative control; also with RNase A pre-treatment of lysates, in shUPF1 and shUPF2 cells, after STF-083010 or Kira6 (10 or 50 μM, 6 h), BiP overexpression, siBiP, UPF3B overexpression; details: partners not purified
T2 construct: inositol-requiring enzyme-1α (IRE1α), endogenous in HEK293T and U2OS cells; source: endogenous, HEK293T and U2OS lysates
T2 sequence (O75460 19-977): as the sequence (O75460 19-977 S724A) above, with A706S counted along it

fold change of the co-precipitate against IRE1α^WT [1]: 3.2 fold
fold change of the co-precipitate in Kira6-treated against control cells [2]: 3.9 fold
B1: UPF3B, endogenous (natural protein, human (endogenous in HEK293T and U2OS), UniProt Q9BZI7 1-483, looked up)
chain: MKEEKEHRPKEKRVTLLTPAGATGSGGGTSGDSSKGEDKQDRNKEKKEALSKVVIRRLPPTLTKEQLQEHLQPMPEHDYFEFFSNDTSLYPHMYARAYINFKNQEDIILFRDRFDGYVFLDNKGQEYPAIVEFAPFQKAAKKKTKKRDTKVGTIDDDPEYRKFLESYATDNEKMTSTPETLLEEIEAKNRELIAKKTTPLLSFLKNKQRMREEKREERRRREIERKRQREEERRKWKEEEKRKRKDIEKLKKIDRIPERDKLKDEPKIKVHRFLLQAVNQKNLLKKPEKGDEKELDKREKAKKLDKENLSDERASGQSCTLPKRSDSELKDEKPKRPEDESGRDYREREREYERDQERILRERERLKRQEEERRRQKERYEKEKTFKRKEEEMKKEKDTLRDKGKKAESTESIGSSEKTEKKEEVVKRDRIRNKDRPAMQLYQPGARSRNRLCPPDDSTKSGDSAAERKQESGISHRKEGGEE
notes: UPF3B, endogenous in HEK293T and U2OS cells; also called up-frameshift 3B; source: endogenous, HEK293T and U2OS lysates
